Legend:
Format in all cases: cell-based
[1] = system: HIV-1 X4 B-HXB2; conditions: virus preincubated 1 h with hBD in 10 mM PB; GHOST cells 48 h; GFP fluorescence
Description: (§1) HIV-1 strains (X4 HXB2 and R5 93US142) were incubated in 10 mM PB with increasing concentrations of hBD and used to infect GHOST X4/R5 cells. (a) Qualitative determination of HIV-1 infection, measured by GFP fluorescence, in the absence (−C) and presence (+C) of virus preincubated in 10 mM PB. (b) Anti-HIV-1 activity of hBD in GHOST X4/R5 cells using fluorescence microscopy. (c) Anti-HIV-1 activity of hBD measured by RT activity in cell-free culture supernatant, relative to the positive control (i.e., HIV-1 infection in the absence of hBD). (d) Antiretroviral activity of hBD against CXCR4- and CCR5-tropic HIV-1 strains in three different environments: DMEM+10% FBS (complete medium); DMEM alone (Medium no FBS); 10 mM PB. Viruses were incubated with 20 μg/ml of each hBD for 1 h in each condition and used to infect CEM X4/R5 cells as described. Results are representative of three independent experiments.
(§2) HIV-1 isolates were incubated with increasing concentrations (5-40 μg/ml) of hBD-1, -2, and -3, in three different conditions: high salt complete medium (RPMI-1640 or DMEM supplemented with 10% fetal bovine serum, FBS); high salt medium in the absence of FBS; or low salt medium (10 mM phosphate buffer), 37° C. for 1 h. Respective mixtures were used to infect PBMC, Ghost X4/R5 or CEM X4/R5 cells at an MOI of […]. After 2 h incubation at 37° C., 5% CO2, cells were washed three times with phosphate-buffered saline (PBS) and cultured in complete medium for 48 h. In the case of Ghost X4/R5 cells, these were washed, resuspended in PBS, and analyzed by fluorescence microscopy for GFP expression as described [Morner et al.]. Cell-free supernatants from PBMC, Ghost X4/R5 and CEM X4/R5 cultures were used to monitor infectivity by the reverse transcriptase (RT) assay [Quinones-Mateu et al.]. The 50% inhibitory concentration (IC50) of each hBD was determined using X4 or R5 HIV-1 isolates. Viruses (0.01 MOI) were incubated with increasing concentrations of hBD-1, -2, and 3 (up to 40 µg/ml) in low salt medium for 1 h and used to infect CEM X4/R5 cells. After 2 h incubation at 37° C., 5% CO2, cells were washed twice with PBS and cultured in complete medium. Supernatant samples were removed on day 5 post-infection and virus production was measured using […] the RT assay [Id.]. Cytotoxicity of hBD was quantified by determining the number of viable cells using a tetrazolium-based colorimetric (MTT) assay [Pauwels et al.].
(§3) Since the antibacterial activity of beta-defensins is sensitive to high salt and serum concentrations, the anti-HIV-1 activity of hBD was initially evaluated in a low salt, serum free environment, mimicking oral mucosal conditions [Mandel et al.]. Two HIV-1 isolates (X4 B-HXB2 and R5 B-93US142) were preincubated for 1 h with increasing concentrations of recombinant hBD-1, -2, and -3, in 10 mM phosphate buffer (PB). GHOST CCR5/CXCR4 cells were then exposed to the mixtures for 48 h in complete medium. […] When CXCR4- and CCR5-tropic HIV-1 strains were preincubated with beta-defensins in high salt medium (DMEM) supplemented with 10% FBS, no antiviral effect was detected (FIG. 4d). However, preincubation in DMEM without FBS inhibited replication of X4, but not R5, HIV-1 isolates (FIG. 4d). Under low salt conditions (i.e., 10 mM PB, no FBS) the 50% inhibitory concentration for both agents against X4 and R5 viruses ranged from 9 to 19 μg/ml and 20 to 40 μg/ml, respectively.

[2] = system: HIV-1 R5 B-93US142; conditions: virus preincubated 1 h with hBD in 10 mM PB; GHOST cells 48 h; GFP fluorescence
Description: as §1, §2, §3

[3] = target: CXCR4 (Homo sapiens, UniProt P61073); assay: Flow cytometric analysis of co-receptor surface expression on unstimulated PBMC; design: endogenous in cells; host or cells: unstimulated peripheral blood mononuclear cells (PBMC); conditions: 30 μg/ml, 3 h, high salt medium without FBS
Description: (§4) Unstimulated PBMC were treated for 3 hrs with hBD-1, -2, or -3 (30 μg/ml) in DMEM (high salt) in the absence of FBS. The CXCR4 natural ligand SDF-1AE (2 μg/ml) and the CCR5 antagonist PSC-RANTES (100 nM) were used as positive controls. CXCR4 and CCR5 surface expression was calculated using known ratios of QuantiBRITE-PE beads (Becton Dickenson) by flow cytometry. Results are the means of seven experiments±SD.
(§5) Unstimulated PBMC were treated with 30 μg/ml hBD-1, -2, or -3 in high salt medium (RPMI-1640) in the absence of FBS, 3 h. The CXCR4 natural ligand SDF-1α (R&D Systems, Minneapolis, Minn., USA) and the CCR5 antagonist PSC-RANTES were used as controls. Cells were incubated with peridinin chlorophyll protein-conjugated anti-human CD4 antibody, and either phycoerythrin (PE)-conjugated anti-human CXCR4 antibody, PE-conjugated anti-human CCR5 antibody, or PE-conjugated mouse immunoglobulin G2a (IgG2a), isotype standard (PharmMingen, San Diego, Calif., USA) [Salkowitz et al.]. Fluorescence intensity was reported as receptor density by quantitative flow cytometry (FACSCaliber; Becton Dickenson, San Jose, Calif., USA) [Iyer et al.]. Data were analyzed using CELLQuest software (Becton Dickenson).
(§6) Surface expression of CXCR4 was decreased by 51%±18% and 52%±20% (SD) respectively after incubation with 30 μg/ml of hBD-2 or hBD-3 (FIG. 5).

[4] = target: CCR5 (Homo sapiens, UniProt P51681); assay: as above; design: endogenous in cells; host or cells: unstimulated peripheral blood mononuclear cells (PBMC); conditions: 30 μg/ml, 3 h, high salt medium without FBS
Description: as §4, §5, §6

Sequence of CXCR4 (P61073 whole entry): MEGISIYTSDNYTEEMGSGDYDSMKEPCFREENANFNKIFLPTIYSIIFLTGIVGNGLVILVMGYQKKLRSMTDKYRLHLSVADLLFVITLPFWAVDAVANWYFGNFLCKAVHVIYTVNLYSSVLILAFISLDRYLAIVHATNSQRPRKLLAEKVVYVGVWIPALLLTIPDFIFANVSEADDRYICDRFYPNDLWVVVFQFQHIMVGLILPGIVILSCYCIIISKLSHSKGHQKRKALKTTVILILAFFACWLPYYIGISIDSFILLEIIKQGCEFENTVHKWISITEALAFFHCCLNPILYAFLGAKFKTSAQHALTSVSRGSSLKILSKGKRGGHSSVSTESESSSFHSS
Sequence of CCR5 (P51681 whole entry): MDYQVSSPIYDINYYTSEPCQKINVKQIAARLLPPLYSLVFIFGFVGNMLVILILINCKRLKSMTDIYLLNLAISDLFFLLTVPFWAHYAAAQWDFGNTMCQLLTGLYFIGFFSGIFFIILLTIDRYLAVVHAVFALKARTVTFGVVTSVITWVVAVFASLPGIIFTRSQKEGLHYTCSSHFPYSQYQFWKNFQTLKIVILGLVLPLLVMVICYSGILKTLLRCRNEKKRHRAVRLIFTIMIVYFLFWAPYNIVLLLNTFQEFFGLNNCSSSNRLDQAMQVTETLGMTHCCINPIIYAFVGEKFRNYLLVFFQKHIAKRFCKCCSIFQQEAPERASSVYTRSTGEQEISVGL

B1: hBD-3: Recombinant human β-defensin 3 produced using an hBD-3-His tag fusion construct cloned into pET-30c; exemplary sequence SEQ ID NO:15 (protein, listed as Homo sapiens)
chain: MRIHYLLFALLFLFLVPVPGHGGIINTLQKYYCRVRGGRCAVLSCLPKEEQIGKCSTRGRKCCRRKK
modifications: not fully specified (C-terminus); ends and bridges not checked
- anti-HIV-1 activity [1]: showed anti-HIV-1 activity
- anti-HIV-1 activity [2]: showed anti-HIV-1 activity
- decrease of surface expression of CXCR4 (±SD) [3]: 52%±20%
- effect on CCR5 expression [4]: not altered

— patent publication US7442375B2, “Compositions of beta-defensin inducing agents” (Case Western Reserve University, priority 2002, dated 2008)
